Laboratory results as given in patent publication US8329865B2, “Antimicrobially active peptides” (priority 2001, dated 2012).

How the values were obtained:
[1] = system: human erythrocytes; assay: Hemolytic assay; assay type: cell-based; conditions: 100 μg/ml
Experimental: Hemolytic assay. The hemolytic activity of DCD peptides was determined on fresh human erythrocytes, which were separated from human EDTA blood using a Ficoll gradient. Isolated erythrocytes were washed three times in 5 ml of PBS (50 mM sodium phosphate buffer, 150 mM NaCl [pH 7.0]) and centrifuged at 1,000×g for 6 min at room temperature. The pellets were resuspended in PBS and further diluted to a concentration of 10^9 human erythrocytes/ml. Hemolytic activity was determined as follows. To the human erythrocyte solution (50 μl), PBS (1 ml) was added, followed by different concentrations of the peptides. The suspension was incubated for 30 min at 37° C. and then centrifuged at 1,000×g for 6 min at 4° C. The supernatant was monitored at 415 nm by using a spectrophotometer (Bio-Rad, Munich, Germany). The hemolytic activity of each peptide was expressed as the percentage of the total hemoglobin release compared to the release after incubation with Millipore water.

[2] = CD spectroscopy, secondary structure; assay type: physicochemical
Experimental: CD) spectroscopy. Circular dichroism (CD) measurements were performed with a Jasco J-720 CD spectrapolarimeter (Jasco, Tokyo, Japan) to determine the secondary structure of DCD-derived peptides. The data are reported as the average of three to four scans at 50 nm/min with a 1-nm step resolution. The CD spectra of the peptides (50 μM) in 10 mM sodium phosphate buffer (pH 7.0) with different amounts of NaCl (10, 100, and 150 mM) in 0 to 60% (vol/vol) trifluoroethanol (TFE) and in the presence of artificial phospholipid vesicles such as DOPC and DOPC-DOPG (1:1 molar ratio) were recorded at room temperature in the 180- to 260-nm wavelength range. The data are reported as the mean residue ellipticity in units of degrees cm^2 dmol^−1 and plotted versus wavelength. The secondary structural predictions for peptides were carried out by Jasco secondary structure software.

[3] = CF release assay with unilamellar liposomes; conditions: even after the addition of 10 μM peptide; relative to Triton X-100
Experimental: FIG. 9. Effect of DCD-derived peptides on membrane permeability. (A) Outer membrane permeability measured by peptide-mediated NPN uptake in E. coli ML-35p. E. coli cells were incubated with 10 μM NPN in the presence of various concentrations of DCD peptides in 5 mM sodium HEPES buffer (pH 7.4). Enhanced uptake due to membrane permeability was measured by an increase in fluorescence intensity (Ex350 and Em460) caused by partition of NPN into the hydrophobic interior of the outer membrane. At time point 0 min, intact E. coli ML-35p cells were added to the peptides. The results are expressed as NPN uptake factor of fluorescence in arbitrary units. All analyses were performed in triplicates. (B) Inner membrane permeability measured as the influx of ONPG in E. coli ML-35p after the addition of DCD peptides. […] The release of ONP by cytoplasmic β-galactosidase was spectrophotometrically monitored at 420 nm. […] All samples were analyzed in triplicates. […] Release was determined 4 min after peptide addition at concentrations of 1 to 10 μM. […] Reaction progress was expressed as the percentage of CF released relative to the total fluorescence released after the addition of Triton X-100 solution at the end of each experiment.
Preparation of liposomes and CF release assay. […] The liposome concentration was determined by phosphorous analysis (Rouser, G. et al. 1970 Lipids 5:494-496). […]

[4] = system: Escherichia coli, Staphylococcus aureus, Enterococcus faecalis and Candida albicans; assay: CFU test (colony-forming units), Example 4; assay type: cell-based; conditions: sodium phosphate buffer, 37° C., 3 h, 4 h or overnight
Experimental: The antimicrobial effect of said peptides was carried out by a CFU test (test for colony-forming units) as described for the defensins by Valore et al., “Human Beta-Defensin-1: An Antimicrobial Peptide of Urogenital Tissues”, J Clin Invest 101, 1633-1642 (1998).
The test of the novel peptides was carried out with Escherichia coli, Staphylococcus aureus, Enterococcus faecalis and Candida albicans. E. coli was incubated in LB medium, E. faecalis and S. aureus in Columbia medium (Difko, BD Heidelberg) and C. albicans in casein hydrolysate medium (Merck, Darmstadt). The amounts of bacteria and yeasts were determined by photometry. The bacterial strains were incubated to an optical density of […] at 600 nm and the yeast was incubated to an optical density of 0.4-0.6 at 450 nm. The amount of the organisms was determined by plating various dilutions as follows: an OD of 1 at 600 nm is equivalent to 8.2×10^9/ml for E. coli, 1.9×10^10/ml for S. aureus and 9.0×10^9/ml for E. faecalis, and an OD of 1 at […] is equivalent to 1.4×10^8/ml for C. albicans.
The cells were washed twice with 10 mM sodium phosphate buffer (pH 7.4) and diluted to 2-3×10^7 cells/ml (E. coli, E. faecalis), 5.7×10^7 cells/ml (S. aureus) or 5×10^5 cells/ml (C. albicans) in phosphate buffer.
The cells were incubated with various amounts of the peptides in 200 μl of sodium phosphate buffer at 37° C. for 3 h, 4 h or overnight (21-24 h). The cells were diluted 1:10 to 1:100 for the bacteria and 1:500 to 1:5000 for the yeast, and 50 μl, 100 μl and 200 μl were plated on appropriate agar plates. The plates were incubated at 37° C. overnight, and the number of colonies was counted. The antimicrobial effect of the peptides has been stated as percentage of killed cells: [1−(cell survival after incubation with the peptide)/(cell survival after control incubation)]×100.

[5] = DOPC-DOPG (1:1 molar ratio) liposomes

| Compound | hemolytic activity [1] | Secondary structure, Random coil ([2]; 10 mM NaP) [%] | Secondary structure, Turn ([2]; 10 mM NaP) [%] | Secondary structure, α-Helix ([2]; 10 mM NaP) [%] | Secondary structure, β-Sheet ([2]; 10 mM NaP) [%] | Secondary structure, Random coil ([2]; 60% TFE) [%] | Secondary structure, Turn ([2]; 60% TFE) [%] | Secondary structure, α-Helix ([2]; 60% TFE) [%] | Secondary structure, β-Sheet ([2]; 60% TFE) [%] | Secondary structure, Random coil [2, 5] [%] | Secondary structure, Turn [2, 5] [%] | Secondary structure, α-Helix [2, 5] [%] | Secondary structure, β-Sheet [2, 5] [%] | Secondary structure, Random coil ([2]; dH2O) [%] | Secondary structure, Turn ([2]; dH2O) [%] | Secondary structure, α-Helix ([2]; dH2O) [%] | Secondary structure, β-Sheet ([2]; dH2O) [%] | CF leakage from liposomes made of DOPC and DOPC-DOPG [3] [%] | antimicrobial effect (percentage of killed cells) [4] |
| --- | --- | --- | --- | --- | --- | --- | --- | --- | --- | --- | --- | --- | --- | --- | --- | --- | --- | --- | --- |
| CC[C@H](C)[C@H](NC(=O)[C@H](CCCCN)NC(=O)[C@H](CCC(=O)O)NC(=O)[C@H](CCCCN)NC(=O)[C@H](CO)NC(=O)[C@H](CCCCN)NC(=O)[C@H](CCCNC(=N)N)NC(=O)[C@H](Cc1ccccc1)NC(=O)[C@H](Cc1ccccc1)NC(=O)[C@H](CC(=O)O)NC(=O)CNC(=O)[C@H](CC(C)C)NC(=O)[C@@H](N)CC(C)C)C(=O)NCC(=O)N[C@@H](CCCCN)C(=O)N[C@@H](CCC(=O)O)C(=O)N[C@@H](Cc1ccccc1)C(=O)N[C@@H](CCCCN)C(=O)N[C@@H](CCCNC(=N)N)C(=O)N[C@H](C(=O)N[C@H](C(=O)N[C@@H](CCC(N)=O)C(=O)N[C@@H](CCCNC(=N)N)C(=O)N[C@H](C(=O)N[C@@H](CCCCN)C(=O)N[C@@H](CC(=O)O)C(=O)N[C@@H](Cc1ccccc1)C(=O)N[C@@H](CC(C)C)C(=O)N[C@@H](CCCNC(=N)N)C(=O)N[C@@H](CC(N)=O)C(=O)N[C@@H](CC(C)C)C(=O)N[C@H](C(=O)N1CCC[C@H]1C(=O)N[C@@H](CCCNC(=N)N)C(=O)N[C@H](C(=O)N[C@@H](CCC(=O)O)C(=O)N[C@@H](CO)C(=O)O)[C@@H](C)O)C(C)C)[C@@H](C)CC)C(C)C)[C@@H](C)CC [LL-37] | up to 2.5% | – | – | – | – | – | – | – | – | – | – | – | – | – | – | – | – | – | – |
| DPYAEAASGPNPGSKSHESAQAENCGADPE [DPI, negative control peptide, unrelated scrambled peptide] | – | 54.8 | 19.4 | 0.0 | 25.8 | 42.5 | 6.0 | 9.6 | 42.0 | 51.2 | 19.1 | 0.0 | 29.7 | 50.3 | 15.4 | 0.0 | 34.3 | ≤ 2 | no appreciable antimicrobial effect |
